Results on 18 molecules are retold here after publication PMC6377682, “ASPP proteins discriminate between PP1 catalytic subunits through their SH3 domain and the PP1 C-tail” (Nature Communications, 2019).

Where a chain is given by its changes, count along the chain named. Numbers in names are those of the source.

B1: PP1γ1^298-323 C-tail peptide (peptide, UniProt P36873 298-323, looked up)
peptide: PAEKKKPNATRPVTPPRGMITKQAKK
notes: source: synthetic peptide (LRI peptide synthesis core facility)
B2: PP1α^301-330 C-tail peptide (peptide, UniProt P62136 301-330, looked up)
peptide: KNKGKYGQFSGLNPGGRPITPPRNSAKAKK
notes: also called PP1α C-tail; source: synthetic peptide (LRI peptide synthesis core facility)
B3: PP1α^301-330 K327A peptide (peptide, UniProt P62136 301-330, looked up)
peptide: B2 peptide with K27A
notes: also called PP1α^K327 to alanine; source: synthetic peptide (LRI peptide synthesis core facility)
B4: PP1α^301-330 K329A peptide (peptide, UniProt P62136 301-330, looked up)
peptide: B2 peptide with K29A
notes: as for B1
B5: PP1α^301-330 3KA peptide (peptide, UniProt P62136 301-330, looked up)
peptide: B2 peptide with K27A, K29A, K30A
notes: also called PP1α 3KA; source: synthetic peptide (LRI peptide synthesis core facility)
B6: PP1α^301-330 K330A peptide (peptide, UniProt P62136 301-330, looked up)
peptide: B2 peptide with K30A
notes: as for B1
B7: human iASPP^621-828 (domain or fragment, UniProt Q8WUF5 621-828, looked up)
chain: RRARLNPLVLLLDAALTGELEVVQQAVKEMNDPSQPNEEGITALHNAICGANYSIVDFLITAGANVNSPDSHGWTPLHCAASCNDTVICMALVQHGAAIFATTLSDGATAFEKCDPYREGYADCATYLADVEQSMGLMNSGAVYALWDYSAEFGDELSFREGESVTVLRRDGPEETDWWWAALHGQEGYVPRNYFGLFPRVKPQRSKV
notes: the protein preparation paragraph prints iASPP^608-828 in pGEX-6P2
B8: PP1α^317-330 peptide (peptide)
peptide: RPITPPRNSAKAKK
notes: PP1α, human, residues 324-330; source: synthetic peptide (LRI peptide synthesis core facility)
B9: PP1α^317-323 core PPII motif peptide (peptide)
peptide: RPITPPR
notes: as for B1
B10: PP1β^297-327 C-tail peptide (peptide, UniProt P62140 297-327, looked up)
peptide: PSEKKAKYQYGGLNSGRPVTPPRTANPPKKR
notes: PP1 catalytic subunit beta, human, residues 297-327; source: synthetic peptide (LRI peptide synthesis core facility)
B11: PP1γ2^297-324 C-tail peptide (peptide, UniProt P36873-2 297-324, looked up)
peptide: KPAEKKKPNATRPVTPPRVASGLNPSIQ
notes: PP1 catalytic subunit gamma, testis-specific isoform γ2, human, residues 297-324; source: synthetic peptide (LRI peptide synthesis core facility)
B12: human ASPP1^882-1090 (domain or fragment, UniProt Q96KQ4 882-1090, looked up)
chain: LRVRFNPLALLLDASLEGEFDLVQRIIYEVEDPSKPNDEGITPLHNAVCAGHHHIVKFLLDFGVNVNAADSDGWTPLHCAASCNSVHLCKQLVESGAAIFASTISDIETAADKCEEMEEGYIQCSQFLYGVQEKLGVMNKGVAYALWDYEAQNSDELSFHEGDALTILRRKDESETEWWWARLGDREGYVPKNLLGLYPRIKPRQRTLA
notes: ASPP1, human, residues 882-1090; source: pGEX-6P2 construct; expression and purification described only for ASPP2
B13: ASPP1^K1052E/S1055D (domain or fragment, human, UniProt Q96KQ4 882-1090, looked up)
chain: B12 chain with K171E, S174D
notes: ASPP1, human, residues 882-1090 with n-Src loop residues 1 and 4 changed to the ASPP2 residues
B14: human ASPP2^920-1120 (domain or fragment, UniProt Q13625 920-1120, looked up)
chain: MRVKFNPLALLLDSSLEGEFDLVQRIIYEVDDPSLPNDEGITALHNAVCAGHTEIVKFLVQFGVNVNAADSDGWTPLHCAASCNNVQVCKFLVESGAAVFAMTYSDMQTAADKCEEMEEGYTQCSQFLYGVQEKMGIMNKGVIYALWDYEPQNDDELPMKEGDCMTIIHREDEDEIEWWWARLNDKEGYVPRNLLGLYPRI
notes: ASPP2, human, residues 920-1120 (RVxF motif, ankyrin repeats, SH3 domain); pGEX-6P2 construct; source: E. coli Rosetta (DE3) pLysS, purified (glutathione-Sepharose, 3C cleavage, SEC); for the crystal co-expressed with PP1α^7-330 in E. coli BL21 (DE3)
B15: ASPP2^D1091G/E1092P (domain or fragment, human, UniProt Q13625 920-1120, looked up)
chain: B14 chain with D172G, E173P
notes: ASPP2, human, residues 920-1120 with n-Src loop mutations; also called double mutant mimicking the human iASPP n-Src loop
B16: ASPP2^D1093S (domain or fragment, human, UniProt Q13625 920-1120, looked up)
chain: B14 chain with D174S
notes: ASPP2, human, residues 920-1120 with an n-Src loop mutation; also called single ASPP2 mutant mimicking the ASPP1 n-Src loop
B17: ASPP2^D1091K/E1092V/E1094K (recombinant fragment) (domain or fragment, human, UniProt Q13625 920-1120, looked up)
chain: B14 chain with D172K, E173V, E175K
notes: ASPP2, human, residues 920-1120 with n-Src loop mutations; also called ASPP2^KVK; triple mutant mimicking the C. elegans iASPP n-Src loop
B18: ASPP2^E1090K/D1093S (domain or fragment, human, UniProt Q13625 920-1120, looked up)
chain: B14 chain with E171K, D174S
notes: ASPP2, human, residues 920-1120 with n-Src loop mutations; also called double ASPP2 mutant mimicking the ASPP1 n-Src loop

Settings in all cases: both partners purified
The target of assay [1] is B14. Put plainly: ITC; PP1 peptides (350–550 μM) titrated into ASPP2^920-1120 (40 μM), 20 °C; 25 mM Tris pH 8.0, 200 mM NaCl, 0.5 mM TCEP; single binding site model; ASPP2 mutants and iASPP in place of ASPP2 for Fig. 6e. In general terms: In ITC the heat of successive injections is recorded.
In assay [2] the target is B7. The description is as above.
The target in assay [3] is B15. The description is as above.
The target in assay [4] is T1, human PP1α^7-330 (human, UniProt P62136 7-330).
T1 construct: PP1 catalytic subunit alpha, human, residues 7-330; His6 tag kept for ITC and BLI (captured on Ni-NTA sensors); also called full-length PP1α (as the text calls it); source: for the crystal co-expressed with ASPP2^920-1120 in E. coli BL21 (DE3), purified (Ni-NTA, glutathione-Sepharose, SEC)
Put plainly: BLI; HIS tagged PP1α, PP1β or PP1γ1 (50 μg/ml) immobilised on Ni-NTA biosensors, ASPP in solution in kinetics buffer, 25 °C, 1000 rpm; global fit 1:1 model; apparent KD.

The target in assay [5] is T2, human PP1γ1^7-323 (human, UniProt P36873 7-323).
T2 construct: source: bacterial culture with GroEL/GroES chaperone; purification for BLI not described
Described as above.

Assay [6] has as its target T3, human PP1β^6-327 (human, UniProt P62140 6-327).
T3 construct: PP1 catalytic subunit beta, human, residues 6-327; source: bacterial culture with GroEL/GroES chaperone; purification for BLI not described
The assay is described as above.

In assay [7] the target is T1, human PP1α^7-330. The assay can be described thus: ITC; ASPP2 (25 μM) titrated into His6-tagged PP1 (3–4 μM), 25 °C; 20 mM Tris pH 8, 500 mM NaCl, 0.5 mM TCEP, 1 mM MnCl2.

Regarding B1, the “fold lower affinity than PP1α^301-330 (143 nM)” value in assay [1] was determined as 5 fold.
Consider B2, for which the Kd in assay [2] is 395 nM; in assay [1] it was 143 nM. In addition, the binding result in assay [3] is on record as “binds”.
As for B3, the “fold decrease in affinity against PP1α^301-330” value in assay [1] was 4 fold.
On to B4, for which the binding result in assay [1] was “binds”.
Regarding B5, the Kd in assay [2] came out at 690 nM; in assay [1], 1900 nM.
As for B6, in assay [1], the binding result was “binds”.
Regarding B7, in assay [4], the Kd was determined as 2.6 nM, the “fold lower koff than ASPP2 on PP1α” value amounted to 110 fold, the “fold lower kon than ASPP2 on PP1α” value amounted to 7 fold and the “half-life of the complex” value was determined as 58 min. In addition, the “fold preference for PP1α and PP1β over PP1γ1” value in assay [5] turned out to be 2 fold.
As for B8, the Kd in assay [1] worked out at 270 nM.
B9 displayed a Kd in assay [1] of 5650 nM.
Take B10: the “fold lower affinity than PP1α^301-330 (143 nM)” value in assay [1] worked out at 7 fold.
Consider B11, for which the “fold lower affinity than PP1α^301-330 (143 nM)” value in assay [1] came out at 15 fold.
As to B12, the binding result in assay [4], in assay [6] and in assay [5] was “binds” throughout.
Turning to B13, the binding result in assay [4] is “binds”.
Regarding B14, the Kd in assay [7] is 6.1 nM; in assay [4], 13.6 nM. Further, in assay [4], the “half-life of the complex” value was found to be 0.517 min. The “fold lower affinity than for PP1α (13.6 nM)” value in assay [6] came to 13 fold; in assay [5], 14 fold.
As to B15, the binding result in assay [4] is on record as “binds”.
Same read-out and setting: in the case of B16 it was “binds”.
B17: in assay [4], the Kd amounted to 8200 nM.
B18: the binding result in assay [4] is given as “binds”.
